From the RNAGym collection of RNA variant scans (doi:10.1093/nar/gkz1192)

B1: CPEB3 Ribozyme (parent)
chain: UAACAGGGGGCCACAGCAGAAGCGUUCACGUCGCAGCCCCUGUCAGAUUCUGGUGAAUCUGCGAAUUCUGCUGUAUAUCUC

Variants of: B1
Experiment: self-cleavage, relative activity (ratio to wild type); higher = more cleavage; in vitro, sequencing
Procedure, shortened: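 Relative activity compares each variant's cleaved/total read fraction with that of the unmutated ribozyme. To get these fractions, barcoded CPEB3 ribozyme libraries from rounds of error-prone PCR were transcribed with T7 RNA polymerase for 5 hours at 37°C and then given 15 min of DNase I treatment before EDTA was added. The RNAs were reverse transcribed with template switching and sequenced on Illumina, and DNA sequencing linked barcodes to variants. A minimum of 5 reads applied, and three batches were averaged.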

Variant | self-cleavage
A21C U49G | 0.11
A21C U60A | 0.36
A21C U60C | 0.07
A21C U60G | 0.15
A20U C62U | 0.15
A21C U72A | 0.19
A20U G70A | 0.17
A20U G70U | 0.15
A20U G30U | 0.24
A21C C81G | 0.3
A21G U67C | 0.24
A21G U67A | 0.24
A21C C38U | 0.16
A21C C38A | 0
A20U U54G | 0.26
A20U U54A | 0.29
A20U U54C | 0.31
A21G G61U | 0.34
A21G G61A | 0.2
A20U C38A | 0.1
A20U C38U | 0.42
A20U G63A | 0.19
A20U A47G | 0.33
A21C U26A | 0.23

Variant | self-cleavage
A20U U41C | 0.28
A20U U41A | 0.3
A20U U41G | 0.23
A21U A64U | 0.13
A21U A64G | 0.18
A21G C81U | 0.92
A21C G53U | 0.15
A21G U80G | 0.76
A21G U80C | 0.74
A21G U80A | 0.72
A21G G63U | 0.61
A20U C50A | 0.21
A21G U26A | 0.52
A21G U26C | 0.29
A21G U26G | 0.25
A21U A65G | 0.34
A21G A28U | 0.38
A21G A28C | 0.3
A21G A28G | 0.35
A21C U48C | 0.19
A21C G55C | 0.21
A21U C39U | 0.2
A21U C39A | 0.31
A20U C32U | 0.3

Variant | self-cleavage
A20U C32A | 0.18
A20U C59G | 0.24
A20U C71A | 0.17
A21G A77G | 0.66
A21G A77U | 0.71
A21G A77C | 0.63
A21G C40A | 0.26
A21G C40U | 0.46
A21U A47G | 0.38
A21U A47U | 0.1
A20U U48C | 0.29
A20U U48A | 0.14
A20U C79G | 0.37
A21C C71A | 0.09
A21C C71G | 0.11
A20U U67C | 0.22
A20U U67G | 0.44
A20U U67A | 1.16
A21U A75G | 0.27
A21U A75U | 0.37
A21C U25C | 0.28
A21C U25A | 0.28
A21U A45U | 0.17
A21U A45C | 0.1

Variant | self-cleavage
A21U A45G | 0.29
A21G G36C | 0.24
A21G G36U | 0.07
A20U G52C | 0.27
A20U G52A | 0.41
A20U G52U | 0.38
A21G A65C | 0.12
A21G A65U | 0.24
A21G A65G | 0.28
A21G G42A | 0.25
A21G G42U | 0.37
A21G G55U | 0.57
A21G G55A | 0.42
A21U A56G | 0.25
A21U A56C | 0.18
A21U A56U | 0.2
A21G C59U | 0.38
A21G C59A | 0.31
A21G U31G | 0.41
A21G U31A | 0.33
A21G U31C | 0.24
A20U U66G | 0.26
A20U U66C | 0.28
A20U U66A | 0.3

Variant | self-cleavage
A21U A28G | 0.22
A21U A28C | 0.15
A21U A28U | 0.23
A20U A77C | 0.25
A20U A77U | 0.28
A20U A77G | 0.39
A21G C29U | 0.28
A20U C44A | 0.27
A20U U31A | 0.24
A20U U31G | 0.23
A20U U31C | 0.26
A21C G73A | 0.35
A21C A64U | 0.07
A21C A64C | 0.17
A21G C71U | 0.32
A21G C71A | 0.07
A21G C44A | 0.18
A21G C44U | 0.26
A20U A64U | 0.26
A20U A64G | 0.35
A21G C34G | 0.2
A20U U49C | 0.3
A20U U49A | 0.2
A21C U80A | 0.18

Variant | self-cleavage
A21C U80C | 0.1
A21G U51A | 0.64
A21G U51G | 0.72
A21G U51C | 0.6
A21G G53A | 0.58
A21G G70A | 0.22
A20U C39A | 0.21
A20U C39G | 0.27
A21C U51A | 0.15
A21C U51C | 0.19
A21G G22A | 0.17
A21G U48C | 0.3
A21G U48A | 0.35
A21G U48G | 0.34
A21U C37U | 0.18
A21U C38U | 0.29
A21C U74C | 0.08
A21C U54C | 0.23
A21C U54A | 0.17
A21G U76A | 0.55
A21G U76C | 0.63
A21G U76G | 0.66
A21G C79U | 0.76
A21G U69G | 0.33

Variant | self-cleavage
A21G U69C | 0.27
A21G U69A | 0.27
A20U U74A | 0.54
A20U U74G | 0.55
A20U U74C | 0.33
A21G A75G | 0.56
A21G A75C | 0.62
A21G A75U | 0.72
A20U C37U | 0.21
A21C U43A | 0.35
A21C U43C | 0.19
A21G U78C | 0.58
A21G U78A | 0.53
A21G G73A | 1.21
A20U C23G | 0.3
A20U C23U | 0.4
A20U C23A | 0.22
A21U A35U | 0.28
A21U A35G | 1.03
A20U A56U | 0.25
A20U A56C | 0.54
A20U A56G | 0.25
A21C A45G | 0.41
